Earlier results on one substance are cited in article PMC4857727.

pKd: −log10 of the molar value.

The target of data set [1] is IL5R-alpha peptide (Homo sapiens) (UniProt Q01344).
Data set [2] has as its target Syndecan peptide (Homo sapiens) (UniProt P31431).
UniProt P31431, sequence (P31431 19-198): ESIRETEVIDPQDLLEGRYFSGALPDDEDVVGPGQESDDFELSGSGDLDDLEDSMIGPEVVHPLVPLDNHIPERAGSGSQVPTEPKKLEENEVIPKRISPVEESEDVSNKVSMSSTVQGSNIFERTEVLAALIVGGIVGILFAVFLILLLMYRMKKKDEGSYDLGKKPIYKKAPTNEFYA

UniProt Q01344, sequence (Q01344 21-420): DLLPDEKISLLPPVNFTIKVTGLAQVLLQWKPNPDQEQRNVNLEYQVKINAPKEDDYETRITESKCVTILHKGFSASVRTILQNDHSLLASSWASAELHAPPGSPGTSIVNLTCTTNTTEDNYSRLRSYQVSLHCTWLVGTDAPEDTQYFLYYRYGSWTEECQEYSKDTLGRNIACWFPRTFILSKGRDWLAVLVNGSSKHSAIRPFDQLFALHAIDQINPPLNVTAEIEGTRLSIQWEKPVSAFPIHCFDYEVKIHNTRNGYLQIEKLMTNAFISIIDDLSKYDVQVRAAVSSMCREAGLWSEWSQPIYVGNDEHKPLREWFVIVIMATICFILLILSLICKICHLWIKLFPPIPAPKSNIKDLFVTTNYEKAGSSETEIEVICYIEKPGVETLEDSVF

As usually defined, the pKd is −log10 of the Kd, conventionally taken in molar units. Regarding Syntenin PDZ2 (from UniProt O00560), the pKd in data set [1] is 4.36; in data set [2] it was 5.54.
